Reference: PMC2726290 (2008)
No end group written: not given here.

T1: hPHD-HD1 complex (hPygo1 PHD 333-402 with hBCL9 HD1) (human, UniProt Q9Y3Y4 333-402; O00512 177-205)
T1 chain 1: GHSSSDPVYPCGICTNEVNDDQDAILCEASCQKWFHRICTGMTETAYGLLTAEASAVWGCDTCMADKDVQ
T1 chain 2: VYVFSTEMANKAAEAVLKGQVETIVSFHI

T2: hPygo1 PHD finger V350E (human, UniProt Q9Y3Y4 333-402, V350E)
T2 sequence: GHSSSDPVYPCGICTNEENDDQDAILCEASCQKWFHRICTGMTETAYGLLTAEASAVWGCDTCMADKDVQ


Columns and labels:
[1] = molecular target: T1, hPHD-HD1 complex (hPygo1 PHD 333-402 …); assay: ITC
[2] = molecular target: hPygo1 PHD finger mutated at Q354 (human, UniProt Q9Y3Y4 333-402); assay: ITC; Q354A
[3] = molecular target: hPygo1 PHD finger mutated at N351 (human, UniProt Q9Y3Y4 333-402); assay: ITC; N351A
[4] = molecular target: T2, hPygo1 PHD finger V350E; assay: ITC

Row | Binder | Kd [1] [µM] | Kd [2] [µM] | Kd [3] [µM] | Kd [4] [µM]
1 | GRTKQTARK (dimethyl-lysine at K4) [H3K4me2 9-mer whose A1 was substituted with a glycine] | 99.8 |  |  | 
2 | ARTKQTARKSTGGKA (trimethyl-lysine at K4) [H3K4me3 15-mer histone H3 tail peptide] |  | 13.8 | 7.1 | 98
3 | ARTK(Me)QTARKSTGGKA [H3K4me1 15-mer histone H3 tail peptide] | 2.2 |  |  | 
